± gives the half width of the 95% confidence interval.
Test: folding stability dG unfold from trypsin proteolysis; higher = more stable
Experimental: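 Folding stability of de novo designed mini-proteins (<80 aa, no Cys; designed by TrROS, TrMRF, ProteinMPNN and the joint model) was measured by cDNA display proteolysis with trypsin and chymotrypsin. Each protease was used at 11 concentrations in a threefold dilution series plus a no-protease condition. K50 was inferred by Bayesian fitting of sequencing counts, and dG unfold was derived against a sequence-predicted unfolded-state K50 (Tsuboyama et al. method). Sequences shown include variable-length N-terminal GS-type padding (SAGGSAGG...) inside a display construct carrying a PA tag. Rows were kept only if the AF2 dimer inter-PAE was >15, to exclude likely homo-oligomers.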

Sequence | folding stability dG unfold [kcal/mol]
SMKKTLTEKIEGVLPEEEAERYLEEYIASRPWAEKVEVKPEIKPIFDEKGNKLVKVKTTITVTISEEKLKSA [r9_1006_JUSTAS] | -0.776 ± 0.95
SSVITNKGSLTITKTTLPDGTVVITITDPNGGRTTTITIPADSDGEATVTPTGSGNAATSTIPVSSLKLSSA [r9_1071_JUSTAS] | 0.505 ± 0.096
SAGGSENPNDPRPVVPVGVAVVDIEIHGHPDMTEEERLAAVEEAVEALEGLEVEHPDGHPTILLAGSAGGSA [r2_149_TrMRF] | -0.161 ± 0.071
SAGGSWIPVEEIAENFPNVEVNTHPNGNIMVRFTHKRKKPNGGKKKHNMTVQLDPEDGRLQSIHPYSAGGSA [r2_104_TrROS] | -0.0297 ± 0.48
MEEVTIEIEVKGLSEEEIKELAEKLAEELREAGYEVEITKVEVLPDGSVKVTIKVRKGMSEEELKKLLEKLS [r1_485_TrROS_Hall] | 3.65 ± 0.36
SKPGDKLEEVTIKIYNPGNGRPREITIEKHEDGWRAQVMNPPGQTKEIPPNDTLEDLLNLPPNYYIEIIPSA [r9_781_TrROS] | -0.271 ± 0.2

Test: folding stability dG unfold from chymotrypsin proteolysis; higher = more stable
Method in brief: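 Sequencing followed digestion of designed mini-proteins with trypsin and chymotrypsin, each at 11 concentrations in threefold dilutions together with a no-protease condition. The mini-proteins were under 80 residues, had no cysteine, sat in a PA-tagged cDNA display construct, and were kept only if AlphaFold2 dimer inter-PAE was above 15. From the counts, Bayesian fitting gave K50, and unfolding free energy was derived against a sequence-predicted unfolded-state K50 and a shared folded-state K50, per protease or combined.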

Sequence | folding stability dG unfold [kcal/mol]
SAGGSAGGSAGGSMKTTTLTVKPEELEEVKKKLTPPDKTVTIKSVTKDPKEDLVTLTVESAGGSAGGSAGGS [r10_1030_JUSTAS] | -0.517 ± 0.59
SAGGGSKVIKVEYEKKDGGKVFIDDITDPGDSVEASIFNPKTGVKIPLPFDKLEELEDFIKEFVDKYSAGGS [r16_736_TrMRF] | -0.154 ± 0.32
SAMKKLRELLEKEFPDRPIKSVKNLGEKLAPDGTPYYVVELTFPDGSTITVTITSEEKPEILEAIEEEESAG [r14_143_JUSTAS] | 3.9 ± 0.22
SAGGSAGGSAGGMRTFPSESLETLPENGLRKKTLTVTYVPPDNPERSYVETEVEIIPSEVSAGGSAGGSAGG [r17_241_JUSTAS] | -1.03 ± 0.34
SAGGSAMSRTITVEITDPRNGKKLKNVVIDVPEDEDISDEEILKKIGIPEKEAKNIKVSKTTEELESAGGSA [r15_665_JUSTAS] | 0.365 ± 0.17
SAGGSAGGMIRTYELPETGEVRVLIRTPNPEEAEALAAEVRAELAAAGLDVPVEISPGPASALDSAGGSAGG [r6_641_JUSTAS] | 0.703 ± 0.2
SAGGEPGVSAEEAAERLRRELGLPGLERVLEVRLTRAVGDPAGRPPEAESLEVEVEVSPEVRERLAALSAGG [r13_552_JUSTAS] | 0.599 ± 0.051
SAGGSAGGSAGGMPAEEVQNIIEEQGFDGPNQTVTIDVPDGRRVKIEMPPNGMKLEVEDSAGGSAGGSAGGS [r10_604_TrROS] | 0.0665 ± 0.081
SAGGSAGGSAGGMPPRLVEIPIFVPPTDPARAEALAEELREELGAEEVVVRIVLAPPGLGSAGGSAGGSAGG [r7_632_JUSTAS] | 0.982 ± 0.013
SAGGNIPPGETWKIKFPGKPIEIQMQQINGKPMYRLRDKNNKPHGTMTPDEADEFLDKLPPNWEIERYSAGG [r13_657_TrROS] | -0.253 ± 0.37
SAGGSAGGSVIPFPGNSRIYVTEVREDGVKIKFPDIGTEITVPANVPINLVGNPTIGPDGTPYSAGGSAGGS [r20_105_TrMRF] | -0.946 ± 0.53
SAGGSAGGMTIPAEKIKGKPIKVLVDRGNAIFPLKEAKVKTKPDGRVELYVPKELGEDTKIIAGSAGGSAGG [r6_628_TrMRF] | -0.573 ± 0.18
SAGGSAGGSMTETVEKTMPSNGATAEITKLPDGSIKVTIKGSNPVIETFPADEPLVIKPGLEGSAGGSAGGS [r12_1003_JUSTAS] | 0.621 ± 0.095
SMEFTIEVYDPVTPKVETFPVKAPKEKVIEKIREFQEKGGKVVLSGLPEEKVKEIVEEAGVDVEIVPVEKSA [r9_1207_TrMRF] | 0.54 ± 0.09
SAGGSAGGSAGPVIRIPDATVTTDPATGTLTVTTAGRTVTVPPGATVTVLPDGTVVVERPSAGGSAGGSAGG [r17_34_JUSTAS] | 0.759 ± 0.035
SVIIKGPGPETYYVEKFGNETKITKFSTEGDKFYKKEYYETFDPNNKTVSRKENEVEEIEPEEEKPFSELSA [r9_83_JUSTAS] | 0.546 ± 0.11
SAGGSAGGSAGGSDPSMSLETFVIPESTSTVTLTDPSGTLRTLTTGRDPLTLTEVLPPRSAGGSAGGSAGGS [r4_162_JUSTAS] | 0.459 ± 0.12
SAGGSAGGSAGGPVLIRAVFTPPNGPVLELVVPSPEEVVELAKPFDVEVHIEPISPDDPFSAGGSAGGSAGG [r7_456_TrMRF] | -1.12 ± 0.45
SAGGSAGGSAGGMKIRVTHPTNKTEEIIPVSELKKIPGPYTIEPLGPDPELAEKIKKLLSAGGSAGGSAGGS [r10_419_JUSTAS] | 0.553 ± 0.22
SAGGSAGGSAGGPELPEDVPVVEVVHLDLPFSPDEPEVVEEAEAKAAALEEGGALAEIRRSAGGSAGGSAGG [r11_519_JUSTAS] | 0.728 ± 0.06
SAGTITKLKTEYDPKGYRFIELLDPLPNDPSVPAEALAQEIKEKYGAEKAEIKPVPGTGAIRILLIKPESAG [r14_228_JUSTAS] | -0.396 ± 0.48
SAMKTYTFEFTLTVPPDTPLEEVKAKVKEKVKAELKKLGIPLPETAKIEIKKVKEEGNKIYFKVTVTNKSAG [r14_735_JUSTAS] | 4.06 ± 0.057
SAGGSAGMKNVVKPVAPGTSMTLKVTKPDGTPRTLTFPPNYTATVKTLPEGGKDEIISLEPVPPELSAGGSA [r15_82_JUSTAS] | -0.82 ± 0.53
SAGGSAGGSAGMTITVYPSDGTVLTRDMSLSEIPELLKKHPELVLESIEEGEGLAKFKVKSAGGSAGGSAGG [r17_22_JUSTAS] | -1.05 ± 0.81
SAGGSAGGSAGGSMVYRVVLEPESGERVEFEVTYDEAEELLEKLPPNARLRIEPVPEDASAGGSAGGSAGGS [r4_63_TrMRF] | 0.265 ± 0.13
SAGGSAGGITLVVEGMPAEQMEEMKQKIREFAEDYNVEVNIDQERNPDGRMRATVEIEPPPGDPSAGGSAGG [r6_907_TrROS] | -0.472 ± 0.15
SAGGGMGSSMKAKVEEEIPELKAADSTKVEITVTVTETRSFALPGGELATTTTTTTKTLEVEVPEEESAGGS [r8_203_JUSTAS] | 0.208 ± 0.26
SAGGSAGGSAGGGMRLVEVPPGDPAAVEARLAELGPDARLLEVRRLPEEGRWVVLVSEESAGGSAGGSAGGS [r10_23_JUSTAS] | 0.643 ± 0.2
SAGGSAGGSAGGSGPPHMRTTNEVTITLDGTVVSGSTPLPESLPPGVETYTTETYLPPLSAGGSAGGSAGGS [r4_436_JUSTAS] | -0.308 ± 0.13

— the supplement of paper PMC12764529
